Test results: patent US20250369044

Assays:
[1] = system: MBP-1 (His-tagged Maltose Binding Protein with C-terminal leader: polyglycine stall, polyarginine capture, ssrA recognition motif)
[2] = system: mNG-HTH (mNG with a helix-turn-helix blocking domain and ssrA tag)
[3] = system: MBP-C chemically tagged on its C-terminal cysteine with the maleimide Peptide-2 tag
[4] = system: mNG-alpha_helix (mNG with an alpha-helical blocking domain and ssrA tag)
[5] = system: C-MBP dimer (MBP variant with a cysteine on the third residue, disulfide-linked N-terminus to N-terminus homodimer)
[6] = system: mNG-beta_hairpin (mNG with a hairpin blocking domain and ssrA tag)
[7] = system: {MBP}-{MBP-1}, genetic fusion protein of two MBP proteins (805 amino acids, 88 kDa)

E. coli ClpX, N-terminal truncated variant (residues 61-423)
ClpX controlled translocation with 1M KGlu in cis and 1 M KCl in trans [1]: ClpX controlled MBP-1 translocations were obtained from CytK 4D2E nanopores systems with 1M KGlu in the cis and 1 M KCl in trans
ClpX-controlled translocation of MBP-1 through the nanopore (ionic current) [1]: clear and consistent capture and subsequent ClpX-controlled translocation of MBP-1 was observed
rate of ClpX translocating along the polypeptide [1]: about 12-15 aa/second in these conditions
trans-to-cis ClpX controlled translocation (ionic current) [1]: characteristic ClpX controlled MBP-1 translocation events occurred trans-to-cis
translocation with 2.5 mM Gamma-S-ATP in place of ATP [1]: long blockades that never progressed to the changing current levels phase associated with ClpX translocase controlled movement of polypeptide that was observed under regular ATP conditions
fluorescence over time at 37° C. after adding ClpX and ATP [2]: no decrease in fluorescence
ClpX controlled translocation of tagged MBP (ionic current) [3]: ClpX controlled MBP translocations (marked by arrows) are evident from the characteristic pattern of changing ionic current signals
fluorescence over time at 37° C. after adding ClpX and ATP [4]: no decrease in fluorescence
nanopore read of the disulfide-linked dimer with ClpX and ATP in cis [5]: After reading the first monomer of C-MBP, the unfoldase was able to pass through the disulfide bond, after which it reads the second C-MBP monomer in the N- to C-terminus direction
fluorescence over time at 37° C. after adding ClpX and ATP [6]: no decrease in fluorescence
full length single-molecule reads with ClpX and ATP in cis [7]: full length reads of the protein were reliably obtained
